For experiment [1], the target named is GST-F28F8.5 (C. elegans) (UniProt H9G301). Put plainly: pull-down; GST-F28F8.5 or GST adsorbed in equal amounts on glutathione-agarose, incubated with 35S-MDT-6 from rabbit reticulocyte lysate; bound fraction resolved by PAGE, autoradiography, excised bands counted by scintillation.
For experiment [2] the target is unchanged. Put plainly: pull-down; GST-F28F8.5 or GST adsorbed in equal amounts on glutathione-agarose, incubated with His6-MDT-30-FLAG purified on a nickel column; Western blot with anti-FLAG M2, densitometry (ImageJ). On the technique in general: A western blot detects proteins with antibodies after separation by electrophoresis.

The source of these data is publication PMC5464003.

B1: 35S-Methionine-MDT-6 (natural protein)
chain: MMPRMGPPAAARQDNPLHVSFRNPQWPPNFINKDNVLDYFCNQANAFYEMNSCNQQIRMQNIVNRTVEECLRTMPGIQYVLWYSQPPLFIICKQRRNNVTNVSPIAYYYVINGSVHQAPDMYSLVQSRLLGALEPLRNAFGEVTNYSRYNTAKGYYWEFKNKPNVKKREEEKKEDEEEKLEDRSTNFQKTRTMMLLNQLFSEMPAEDALEREEKEEVEEEEEETLKTEEPTTSTDEPKFAEPTARTTSKQ
modifications: 35S-methionine label
Take B1: the fold enrichment over GST alone in the experiment with GST-F28F8.5 (C. elegans) [1] stood at 7.7 fold.

B2: His6-MDT-30-FLAG (natural protein)
chain: MNPNQPPNYPPGNPNQPPPFPPTPYYPMYQAGMPMPYIPQSPQYPQPGPPGGPPPFMGIQIKQEPMWSQENRYGMQAGPSGMPGMPPSSHPYGYPPMHGMPPGMPQGMPPMMDPNMPDFSSPPMHHPTTSLLAQHLSSAPLPPAPPQQQSHLSQLLQQPTTYSTATNPHAAPTQTIARRPDNEARNAQLQEQELAARQQQQQEYMLQQHQQQQQNRAGQLQAEQAFANPPTVSIPPQTGHPPQQTSASSQQRAQETMAQQTEPQSHIRESPQKETNLEKYSTGELCLYGRELVNDLNVKTSYLSTILKKVMERKPLNQGENPNDLADQCKNALQRMSDIRQIIEKRREPTWKRMTGEDYIELMLDDSELKKPMDEERQKRRAELEQRFAIVISKTPPVEGHIWYQGKWISEELHKKYMQFEANKEIVKNLAAELKALAWKIDVTSPGHLKKVDQTKISKKKTDDQV
Take B2: the fold enrichment over GST alone with GST-F28F8.5 (C. elegans) [2] is 2.5 fold.
